The test has as its target taxol-stabilized microtubules. The test can be described thus: co-sedimentation.

“6×His-CLASP2(340–650), wild type (from UniProt O75122-3 340-650) (domain or fragment)”: the Kd is < 0.3 µM.

The values are drawn from PMC2699158.
